The source of these data is patent US20100174053A1 (published 2010).

One assay addresses T1, sCD32B-Ig (UniProt P31994 43-217).
T1 construct: extracellular domain; not shown: Ig part of sCD32B-Ig; not described
T1 sequence (looked up): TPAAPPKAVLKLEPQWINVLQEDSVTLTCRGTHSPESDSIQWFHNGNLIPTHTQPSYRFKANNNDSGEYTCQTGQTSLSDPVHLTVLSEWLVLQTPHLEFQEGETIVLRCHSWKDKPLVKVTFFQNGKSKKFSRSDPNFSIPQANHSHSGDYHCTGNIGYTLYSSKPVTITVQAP
The assay can be described thus: sandwich ELISA: sCD32B-Ig coated, diabody, sCD16A-Biotin probe, streptavidin-HRP. The procedure:
The plate was then incubated at room temperature for 1 hour.
On the technique in general: ELISA stands for enzyme-linked immunosorbent assay.

For a further assay, the target named is T2, soluble CD32B (sCD32B) (human, UniProt P31994 43-217, biotin where used as the ELISA probe).
T2 construct: extracellular domain; also called soluble CD32B ectodomain; sCD32B-biotin
T2 sequence (looked up): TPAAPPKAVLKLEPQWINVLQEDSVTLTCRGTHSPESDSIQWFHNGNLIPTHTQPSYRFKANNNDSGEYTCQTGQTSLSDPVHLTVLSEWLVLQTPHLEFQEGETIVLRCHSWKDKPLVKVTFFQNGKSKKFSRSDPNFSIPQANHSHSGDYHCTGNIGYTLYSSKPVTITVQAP
The assay can be described thus: SPR (BIAcore), receptor immobilised. The procedure:
(§1) (A) Binding to sCD16; (B) Binding to sCD32B and (C) Binding to sCD32A. Diabodies were injected at a concentration of 100 NM, and scFv at a concentration of 200 nM, over receptor surfaces at a flow rate of […] for 60 sec.
(§2) sCD16A, sCD32B or sCD32A (negative control) were immobilized on one of the four flow cells (flow cell 2) of a sensor chip surface through amine coupling chemistry (by modification of carboxymethyl groups with mixture of NHS/EDC) such that about 1000 response units (RU) of either receptor was immobilized on the surface. Following this, the unreacted active esters were “capped off” with an injection of 1M Et-NH2.
(In SPR one partner is held on a chip, and binding of the other changes the refractive index at the surface.)

In another assay the target is T3, sCD32A (UniProt P12318 34-217, limits assumed).
T3 construct: extracellular domain; Negative control surface in SPR; also called control receptor
T3 sequence (looked up): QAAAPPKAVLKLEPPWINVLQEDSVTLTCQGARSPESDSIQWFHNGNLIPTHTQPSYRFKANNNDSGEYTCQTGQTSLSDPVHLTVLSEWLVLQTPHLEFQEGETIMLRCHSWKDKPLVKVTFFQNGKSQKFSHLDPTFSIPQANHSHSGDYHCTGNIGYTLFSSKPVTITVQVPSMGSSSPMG
Kind of assay: SPR (BIAcore), receptor immobilised. The procedure:
as §1, §2

The target of another assay is T4, soluble CD16A (sCD16A) (human, UniProt P08637 17-208, biotin or HRP conjugate where used as the ELISA probe).
T4 construct: extracellular domain; Printed only as soluble CD16A; also called hCD16A; hCD16
T4 sequence (P08637 17-208): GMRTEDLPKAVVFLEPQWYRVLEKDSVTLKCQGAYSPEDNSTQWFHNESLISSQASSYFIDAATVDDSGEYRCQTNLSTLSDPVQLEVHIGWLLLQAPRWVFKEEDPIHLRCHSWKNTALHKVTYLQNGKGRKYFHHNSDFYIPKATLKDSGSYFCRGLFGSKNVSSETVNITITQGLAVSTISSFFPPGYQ
Kind of assay: SPR (BIAcore), receptor immobilised, diabody 6.25-200 nM as analyte, bivalent analyte fit. The procedure: Diabodies were injected at concentrations of 6.25-200 nM over receptor surfaces at a flow rate of […] for 180 sec.
as §2

B1: h3G8 covalent monospecific diabody (CMD) (other)
chain: DIVMTQSPDSLAVSLGERATINCKASQSVDFDGDSFMNWYQQKPGQPPKLLIYTTSNLESGVPDRFSGSGSGTDFTLTISSLQAEDVAVYYCQQSNEDPYTFGQGTKLEIKGGGSGGGGQVTLRESGPALVKPTQTLTLTCTFSGFSLSTSGMGVGWIRQPPGKALEWLAHIWWDDDKRYNPALKSRLTISKDTSKNQVVLTMTNMDPVDTATYYCAQINPAWFAYWGQGTLVTVSSLGGC
notes: Covalent homodimer of construct 3; also called h3G8 CMD; h3G8 diabody
B1: the binding result with sCD32B-Ig is “no binding (tested: 0.5 µg/ml to 0.001 µg/ml)”; with soluble CD32B (sCD32B) it was “no binding (tested: 100 nM)”; in the assay with sCD32A, “no binding (tested: 100 nM)”. The molecule further showed a Kd with soluble CD16A (sCD16A) of 18 nM.
